Measurements: article PMC2377097

Molecular target: Unc45b^Flag, bacteria expressed and purified (mouse) (UniProt Q8CGY6)
Experiment: pull-down; apparent; skeletal MD::GFP synthesized in the coupled assay, incubated with 0-2000 nM Unc45b^Flag 1 hr at 25°C, then anti-Flag beads 1 hr at 25°C; silver stain and autoradiography

Unc45b^Flag, bacteria expressed and purified (mouse), sequence (Q8CGY6 whole entry): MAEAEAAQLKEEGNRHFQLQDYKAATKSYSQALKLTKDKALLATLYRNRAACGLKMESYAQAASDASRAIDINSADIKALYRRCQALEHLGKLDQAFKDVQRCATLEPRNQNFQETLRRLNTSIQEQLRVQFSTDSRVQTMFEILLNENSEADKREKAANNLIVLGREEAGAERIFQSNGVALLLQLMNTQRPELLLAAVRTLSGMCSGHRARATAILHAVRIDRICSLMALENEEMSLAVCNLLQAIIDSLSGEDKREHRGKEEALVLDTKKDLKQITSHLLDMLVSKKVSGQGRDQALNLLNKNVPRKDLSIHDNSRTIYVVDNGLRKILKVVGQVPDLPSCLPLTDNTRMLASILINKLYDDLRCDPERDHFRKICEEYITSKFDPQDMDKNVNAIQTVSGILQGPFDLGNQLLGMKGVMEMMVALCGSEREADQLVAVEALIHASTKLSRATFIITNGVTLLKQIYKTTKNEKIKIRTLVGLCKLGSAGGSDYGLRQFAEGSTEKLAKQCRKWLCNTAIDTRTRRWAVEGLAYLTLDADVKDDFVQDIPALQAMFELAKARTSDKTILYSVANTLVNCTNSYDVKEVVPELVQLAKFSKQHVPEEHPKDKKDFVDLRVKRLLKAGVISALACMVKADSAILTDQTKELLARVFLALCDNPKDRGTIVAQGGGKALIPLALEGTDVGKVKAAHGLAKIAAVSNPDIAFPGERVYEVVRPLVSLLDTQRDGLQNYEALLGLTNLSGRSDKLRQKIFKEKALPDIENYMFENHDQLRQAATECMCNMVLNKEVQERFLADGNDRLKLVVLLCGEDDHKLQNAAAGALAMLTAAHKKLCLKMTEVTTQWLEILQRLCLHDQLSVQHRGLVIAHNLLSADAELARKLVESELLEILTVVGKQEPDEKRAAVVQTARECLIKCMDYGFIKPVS

Kd: 510 nM
Substance: skeletal muscle MD::GFP chimera (Sk795GFP) (domain or fragment)
